Test results taken from patent US20090203610A1, “METHODS OF TREATING OBESITY OR DIABETES USING NT-4/5” (RINAT NEUROSCIENCE CORPORATION, priority 2004, published 2009).

Assays:
[1] = biological target: T1, human TrkB (Homo sapiens, UniProt Q16620); test: Receptor tyrosine phosphorylation (KIRA) in TrkB expressing cell line; assay type: cell-based
T1 construct: expressed in transfected cells
Source text: Method of making pegylated NT-4/5 (S50C): The native form of NT-4/5 used in this study was produced according to the method described in U.S. Pat. No. 6,184,360. A site-directed pegylated NT-4/5 was also produced. The structure of NT-4/5 in complex with domain 5 of TrkB was examined to find amino acid side chains that would be surface available and unlikely to interfere with natural disulfide bonds and also unlikely to interfere in either the interactions between the monomer subunits of NT-4/5 or the TrkB domain 5 to create a PEG attaching site. […] […] Mutant proteins were expressed in E. coli, solubilized, extracted, purified and refolded as the native NT-4/5. To pegylate the refolded NT4-S50C, NT4-Q105C, and NT-4-E67C, first a mild reduction with 0.1 mM DTT (dithiothreitol) was performed. Excess DTT was removed by dialysis against 50 mM sodium acetate at pH 6, then a 5 molar excess of mPEG-maleimide (M. W. of 10,000 Da, SunBio, Inc., South Korea) was incubated with the protein at 37° C. for several days with gentle agitation. Pegylated protein, non-pegylated protein and unreacted PEG were separated via ion exchange or size exclusion chromatography.
(§1) Assays of TrkB specific activation by pegylated NT-4/5: Stable cell lines expressing human TrkA, TrkB or TrkC were used to determine the functional activity, i.e. receptor phosphorylation, of NT-4/5 and pegylated NT-4/5 as previously described (Sadick et al. Experimental Cell Research 234: 354-361, 1997).
as §1, with “and different forms of” for “and”

[2] = tested on: NONcNZO-10 polygenic obese mice; test: Pegylated NT-4/5 cysteine mutant on body weight, food intake, glucose, triglyceride in NONcNZO-10 mice (Example 6); assay type: in vivo; settings: 2 mg/kg/week injection
[3] = biological target: T2, human TrkA (Homo sapiens, UniProt P04629); test: Receptor tyrosine phosphorylation in trkA expressing cell line; assay type: cell-based
T2 construct: expressed in transfected cells
Source text: as §1
as §1, with “and different forms of” for “and”

[4] = biological target: T3, human TrkC (Homo sapiens, UniProt Q16288); test: Receptor tyrosine phosphorylation in trkC expressing cell line; assay type: cell-based
T3 construct: expressed in transfected cells
Source text: as §1
as §1, with “and different forms of” for “and”

[5] = tested on: db/db mice; test: Body weight after single injection of NT-4/5 or pegylated NT-4/5 in db/db mice (Example 7, Table 21); assay type: in vivo; settings: for Body weight expressed in percentage of baseline value: single 5 mg/kg dose on day 1; for body weight growth: single subcutaneous injection, 5 mg/kg, significantly
Protocol: (§2) Test animals: 30 female db/db mice at 7 weeks of age weighing in the range of 27-34 g were used in this study.
(§3) Administration of NT-4/5 and pegylated NT-4/5: Wild type NT-4/5 was obtained from Genentech Inc. The mice were divided into 5 groups of equivalent body weight distribution (6 mice per group). Each group received on the first day (day 1) of the study one and the only dose of either vehicle, 5 mg/kg of NT-4/5 produced as described above, 5 mg/kg of 2PEG-NT4-G1S, or 5 mg/kg of 1PEG-NT4-G1S. 2PEG-NT4-G1S represents one PEG molecule was conjugated to each NT-4/5 monomer in a NT-4/5 dimer, and 1PEG-NT4-G1S represents one PEG molecule was conjugated to only one monomer of the NT-4/5 dimer. 2PEG-NT4-G1S and 1PEG-NT4-G1S were separated by ion exchange. Four days before starting the treatment (day −4), blood samples were collected from the mice as described previously for the determination of baseline levels of serum glucose. On day 4 after the treatment started, blood samples were collected again to determine serum glucose level. Body weight and food intake were monitored 5 days a week through out the entire study.

[6] = tested on: db/db mice; test: Daily food intake after single injection of NT-4/5 or pegylated NT-4/5 in db/db mice (Example 7, Table 22); assay type: in vivo; settings: for Daily food intake: single s.c. injection 5 mg/kg, db/db mice, mean; for food intake: single subcutaneous injection, 5 mg/kg, significantly
Protocol: as §2, §3

[7] = tested on: db/db mice; test: Non-fasting serum glucose after single injection in db/db mice (Example 7); assay type: in vivo; settings: after 4 days; single subcutaneous injection, 5 mg/kg
Protocol: as §2, §3

[8] = Serum half life after single subcutaneous dose in db/db mice (Example 7); assay type: in vivo
Source text: In addition, pegylated NT-4/5 has extended half life in vivo.

T1 sequence (Q16620 32-822): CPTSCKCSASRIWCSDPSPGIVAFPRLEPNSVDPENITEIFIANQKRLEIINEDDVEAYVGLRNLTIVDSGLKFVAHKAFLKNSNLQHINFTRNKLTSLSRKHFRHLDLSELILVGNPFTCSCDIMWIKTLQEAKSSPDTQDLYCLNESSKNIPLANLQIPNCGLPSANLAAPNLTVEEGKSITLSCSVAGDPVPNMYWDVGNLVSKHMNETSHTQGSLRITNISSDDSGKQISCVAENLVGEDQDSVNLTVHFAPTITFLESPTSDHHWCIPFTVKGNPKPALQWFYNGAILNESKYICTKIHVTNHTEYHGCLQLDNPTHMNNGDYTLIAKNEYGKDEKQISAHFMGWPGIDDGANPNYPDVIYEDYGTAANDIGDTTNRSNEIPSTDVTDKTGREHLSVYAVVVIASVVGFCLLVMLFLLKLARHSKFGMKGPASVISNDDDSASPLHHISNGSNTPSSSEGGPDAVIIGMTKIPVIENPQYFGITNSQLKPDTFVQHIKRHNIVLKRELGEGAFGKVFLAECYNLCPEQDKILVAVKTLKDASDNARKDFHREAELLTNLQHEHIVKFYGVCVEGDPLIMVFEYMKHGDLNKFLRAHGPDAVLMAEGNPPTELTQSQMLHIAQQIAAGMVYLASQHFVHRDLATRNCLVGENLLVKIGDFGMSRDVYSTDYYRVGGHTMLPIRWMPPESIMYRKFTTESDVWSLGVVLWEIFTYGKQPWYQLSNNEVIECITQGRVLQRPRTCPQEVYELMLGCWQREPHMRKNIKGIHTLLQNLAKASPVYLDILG
T2 sequence (P04629 33-796): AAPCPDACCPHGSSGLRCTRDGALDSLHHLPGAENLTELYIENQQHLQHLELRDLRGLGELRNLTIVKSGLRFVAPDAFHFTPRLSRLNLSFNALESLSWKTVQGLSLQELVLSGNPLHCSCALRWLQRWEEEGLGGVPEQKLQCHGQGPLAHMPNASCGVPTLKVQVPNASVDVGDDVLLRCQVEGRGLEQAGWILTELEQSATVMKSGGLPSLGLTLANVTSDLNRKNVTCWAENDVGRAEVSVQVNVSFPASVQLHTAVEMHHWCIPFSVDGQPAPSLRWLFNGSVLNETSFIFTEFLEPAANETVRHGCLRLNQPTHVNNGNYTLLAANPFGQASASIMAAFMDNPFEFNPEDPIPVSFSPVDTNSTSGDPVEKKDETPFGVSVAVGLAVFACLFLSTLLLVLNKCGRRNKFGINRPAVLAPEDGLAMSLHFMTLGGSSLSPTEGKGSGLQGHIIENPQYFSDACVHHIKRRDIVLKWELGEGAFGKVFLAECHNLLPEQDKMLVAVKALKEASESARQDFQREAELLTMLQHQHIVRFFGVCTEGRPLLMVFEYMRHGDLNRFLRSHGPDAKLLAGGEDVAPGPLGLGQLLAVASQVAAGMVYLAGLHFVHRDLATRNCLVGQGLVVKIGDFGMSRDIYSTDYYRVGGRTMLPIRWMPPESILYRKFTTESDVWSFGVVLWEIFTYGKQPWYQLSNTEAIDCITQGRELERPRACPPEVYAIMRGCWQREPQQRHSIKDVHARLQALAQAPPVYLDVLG
T3 sequence (Q16288 32-839): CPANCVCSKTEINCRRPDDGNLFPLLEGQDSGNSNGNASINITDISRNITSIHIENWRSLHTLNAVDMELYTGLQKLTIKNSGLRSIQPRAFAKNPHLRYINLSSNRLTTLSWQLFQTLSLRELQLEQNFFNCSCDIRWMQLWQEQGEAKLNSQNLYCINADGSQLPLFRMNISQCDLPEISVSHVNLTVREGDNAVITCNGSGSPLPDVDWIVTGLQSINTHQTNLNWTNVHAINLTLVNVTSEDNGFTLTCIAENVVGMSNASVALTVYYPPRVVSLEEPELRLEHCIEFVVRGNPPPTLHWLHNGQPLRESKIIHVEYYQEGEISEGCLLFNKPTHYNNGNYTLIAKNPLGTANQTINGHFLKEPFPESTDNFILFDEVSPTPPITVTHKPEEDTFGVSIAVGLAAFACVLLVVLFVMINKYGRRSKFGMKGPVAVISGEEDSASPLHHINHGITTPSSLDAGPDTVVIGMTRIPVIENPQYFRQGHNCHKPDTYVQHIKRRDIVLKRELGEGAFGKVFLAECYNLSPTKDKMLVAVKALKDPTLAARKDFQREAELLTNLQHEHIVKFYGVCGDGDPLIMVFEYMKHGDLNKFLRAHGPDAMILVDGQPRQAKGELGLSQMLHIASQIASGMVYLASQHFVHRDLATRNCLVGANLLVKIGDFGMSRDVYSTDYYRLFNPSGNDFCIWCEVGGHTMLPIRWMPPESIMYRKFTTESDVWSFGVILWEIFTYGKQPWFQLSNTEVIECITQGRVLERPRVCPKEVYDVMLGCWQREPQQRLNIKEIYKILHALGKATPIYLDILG

B1: Pegylated mutant NT-4/5 (Q105C): NT-4/5 with residue 105 changed to cysteine, pegylated with mPEG-maleimide (10,000 Da) (conjugate)
chain: GVSETAPASRRGELAVCDAVSGWVTDRRTAVDLRGREVEVLGEVPAAGGSPLRQYFFETRCKADNAEEGGPGAGGGGCRGVDRRHWVSECKAKQSYVRALTADACGRVGWRWIRIDTACVCTLLSRTGRA
Q: For B1, which “receptor tyrosine phosphorylation of TrkB-expressing cell line” value [1] is on record?
A: preserved TrkB receptor agonist activity

Q: And the “in vivo activity (body weight, food intake, glucose or triglyceride)” value [2]?
A: inactive in vivo

B2: 1PEG-NT4-G1S: NT4-G1S dimer with one 20 kDa PEG molecule conjugated to only one monomer (conjugate)
chain 1: SVSETAPASRRGELAVCDAVSGWVTDRRTAVDLRGREVEVLGEVPAAGGSPLRQYFFETRCKADNAEEGGPGAGGGGCRGVDRRHWVSECKAKQSYVRALTADAQGRVGWRWIRIDTACVCTLLSRTGRA
chain 2: SVSETAPASRRGELAVCDAVSGWVTDRRTAVDLRGREVEVLGEVPAAGGSPLRQYFFETRCKADNAEEGGPGAGGGGCRGVDRRHWVSECKAKQSYVRALTADAQGRVGWRWIRIDTACVCTLLSRTGRA
Q: With B2 as the molecule, how does the “receptor tyrosine phosphorylation of TrkB-expressing cell line” value [1] read?
A: increased receptor tyrosine phosphorylation

Q: And the “receptor tyrosine phosphorylation of trkA-expressing cell line” value [3]?
A: did not increase receptor tyrosine phosphorylation

Q: What about the “receptor tyrosine phosphorylation of trkC-expressing cell line” value [4] of the same molecule?
A: did not increase receptor tyrosine phosphorylation

Q: And the “Body weight expressed in percentage of baseline value” (“Body weight expressed in percentage” below) ([5]; Day 1)?
A: 100.0 % of baseline

Q: And the “Body weight expressed in percentage” value ([5]; Day 2)?
A: 98.2 % of baseline

Q: And the “Body weight expressed in percentage” value ([5]; Day 3)?
A: 100.0 % of baseline

Q: And the “Body weight expressed in percentage” value ([5]; Day 4)?
A: 103.0 % of baseline

Q: And the “body weight growth” value [5]?
A: reduced the body weight growth

Q: And the Daily food intake ([6]; Day 1)?
A: 6.8 g/day

Q: What about the Daily food intake ([6]; Day 2) of the same molecule?
A: 5.3 g/day

Q: What about the Daily food intake ([6]; Day 3) of the same molecule?
A: 6.7 g/day

Q: What about the Daily food intake ([6]; Day 4) of the same molecule?
A: 6.3 g/day

Q: What about the “food intake” value [6] of the same molecule?
A: reduced

Q: What about the “non-fasting serum glucose levels” value [7] of the same molecule?
A: showed a tendency to reduce

B3: 2PEG-NT4-G1S: NT4-G1S dimer with one 20 kDa PEG molecule conjugated to each NT-4/5 monomer (conjugate)
chain: SVSETAPASRRGELAVCDAVSGWVTDRRTAVDLRGREVEVLGEVPAAGGSPLRQYFFETRCKADNAEEGGPGAGGGGCRGVDRRHWVSECKAKQSYVRALTADAQGRVGWRWIRIDTACVCTLLSRTGRA
Q: What does the source list for B3?
A: receptor tyrosine phosphorylation of TrkB-expressing cell line [1]: increased receptor tyrosine phosphorylation; receptor tyrosine phosphorylation of trkA-expressing cell line [3]: did not increase receptor tyrosine phosphorylation; receptor tyrosine phosphorylation of trkC-expressing cell line [4]: did not increase receptor tyrosine phosphorylation; absolute protein levels relative to native NT-4/5 ([8]; at any given time point): several orders of magnitude higher; serum half life ([8]; single subcutaneous dose of 4 mg/kg in db/db mice, estimated): 12.7 to 16 h; Body weight expressed in percentage of baseline value ([5]; Day 1): 100.0 % of baseline; Body weight expressed in percentage of baseline value ([5]; Day 2): 97.3 % of baseline; Body weight expressed in percentage of baseline value ([5]; Day 3): 98.4 % of baseline; Body weight expressed in percentage of baseline value ([5]; Day 4): 100.1 % of baseline; body weight growth [5]: reduced the body weight growth; Daily food intake ([6]; Day 1): 6.7 g/day; Daily food intake ([6]; Day 2): 5.3 g/day; Daily food intake ([6]; Day 3): 5.8 g/day; Daily food intake ([6]; Day 4): 6.2 g/day; food intake [6]: reduced; non-fasting serum glucose levels [7]: showed a tendency to reduce
